Test results: paper doi:10.1101/2022.09.15.508177

What was measured:
[1] = molecular target: CTCF(Y226A/F228A) (human) (UniProt P49711); assay: single-molecule co-localisation on DNA curtains
[2] = molecular target: CTCF truncation mutant that only includes the 11 Zn-fingers (human); assay: single-molecule co-localisation on DNA curtains
[3] = molecular target: CTCF (CCCTC-binding factor), full-length, wild type, C-terminal MBP-Flag tag (human) (UniProt P49711)
[4] = molecular target: CTCF (CCCTC-binding factor), full-length, wild type, C-terminal MBP-Flag tag (human) (UniProt P49711); assay: single-molecule co-localisation on DNA curtains

Sequence of CTCF truncation mutant that only includes the 11 Zn-fingers (human) (P49711 266-577, stated change not applied): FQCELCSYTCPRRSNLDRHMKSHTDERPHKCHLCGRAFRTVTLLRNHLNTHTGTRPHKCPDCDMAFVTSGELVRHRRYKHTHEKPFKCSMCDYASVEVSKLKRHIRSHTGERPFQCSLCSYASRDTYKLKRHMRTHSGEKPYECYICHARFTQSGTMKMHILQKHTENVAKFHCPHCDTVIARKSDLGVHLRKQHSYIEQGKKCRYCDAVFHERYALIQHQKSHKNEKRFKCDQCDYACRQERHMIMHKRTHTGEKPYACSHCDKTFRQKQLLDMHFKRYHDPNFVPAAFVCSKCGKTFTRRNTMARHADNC

| Substance | percent co-localised [1] | percent co-localised [2] | cohesin velocity after non-permissive (CTCF^N) collision [3] | cohesin velocity after permissive (CTCF^C) collision [3] | percent of CTCF^N foci that retained cohesin [4] |
| --- | --- | --- | --- | --- | --- |
| cohesin-NIPBL^C (SMC1, SMC3, RAD21, STAG1 with NIPBL^C), wild type (from UniProt Q14683;Q9UQE7;O60216;Q8WVM7;Q6KC79) (complex) | < 50% | < 50% | 0.2 bp s^-1 | 1.42 bp s^-1 | – |
| cohesin-NIPBL^C with STAG1(W337A/F347A) (from UniProt Q14683;Q9UQE7;O60216;Q8WVM7;Q6KC79) (complex) | – | – | – | – | 47% |
